Measurements from patent publication US20180346555A1 (Regeneron, published 2018).

B1: H4H16971P (antibody, human IgG4, V domains shown)
VH: QVQLVESGGGVVQPGRSLRLSCAASGFTFSSYGLHWVRQAPGKGLEWVAVISDDGSYKFYADSMKGRFTISRDNSKNTLYLQMNSLRAEDTAVYYCAKDRGRSGWYYFDYWGQGTLVTVSS
VL: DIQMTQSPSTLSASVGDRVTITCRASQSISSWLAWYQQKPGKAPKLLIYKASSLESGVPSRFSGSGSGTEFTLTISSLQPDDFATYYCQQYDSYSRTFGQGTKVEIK
notes: Fully human antibody with human IgG4 Fc (H4H prefix)
B2: H4H16979P (antibody, human IgG4, V domains shown)
VH: QVQLVQSGAEVKKPGASVKVSCKASGYTFIAYYLHWVRQAPGQGLEWMGLLNPYTGGSYYTQKFQGRVTMTRDTSIDTAYMELNSLRSDDTAIYYCARDKRSYYIPYAFEIWGQGTMVTVSS
VL: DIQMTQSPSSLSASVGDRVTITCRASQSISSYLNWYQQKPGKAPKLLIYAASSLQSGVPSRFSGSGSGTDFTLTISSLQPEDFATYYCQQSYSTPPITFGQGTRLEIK
notes: as for B1
B3: H4H16967P (antibody, human IgG4, V domains shown)
VH: QVQLVESGGGVVQPGRSLRLSCAASGFTFSSYGMHWFRQAPGKGLEWVGVIWSDGSDKKYADSVKGRFTISRDNSKNTLYLLMNSLRDDDTAVYHCAREGGFLYSSSSHFDYWGQGTLVTVSS
VL: AIQMTQSPSSLSASVGDRVTITCRTSQGIRNDLGWYQQKPGKAPKLLIFAASSLQSGVPSRFSGSGSGTDFTLTISSLQPEDFAIYYCLQDYKYPFTFGGGTKVEIK
notes: as for B1
B4: H4H16950P (antibody, human IgG4, V domains shown)
VH: QVQLVQSGAEVKKPGASVKVSCKTSGYTFTNYGITWVRQAPGQGLEWMGWISAYNGNTNYAQNVQGRVTMTTDTSTSTAYMEVRSLRSDDTAVYYCARRSSMLHFQHWGQGTLVTVSS
VL: DIVMTQSPDSLAVSLGERATINCKSSQHVLYDSSNENYLAWFQQKPGQPPKLLIYWASTRESGVPDRFSGSGSGTDFTLTISSLQAEDVAVYYCQQYSSAPYTFGQGTKLEIK
notes: as for B1
B5: H4H16946P (antibody, human IgG4, V domains shown)
VH: EVQLVESGGGLVQPGGSLRLSCVASGFTFSNYDMNWVRQAPGEGLEWISYISYSDHNIYYIDSVKGRFTISRDNAKNSLYLQMNSLRAEDTAIYYCAREALASSSFDYWGQGTLVTVSS
VL: EIVMTQSPATLSVSPGERVTLSCRASQSVSGNLAWYQQKPGQAPRLLIYSASTGATGVPARFSGSGSGTEFTLTISSLQSEDFALYYCQQYNKWPRTIGQGTKVEIK
notes: as for B1
B6: H4H16960P (antibody, human IgG4, V domains shown)
VH: QLQLQESGPGLVRPSETLSLTCTVSGGSISSSNYWWGWIRQPPGKGLEWIGSIYYSGITYYNPSLKSRVTISADTSKDQFSLKLRSVTAADTAVYYCAKLEWLRLDFWGQGTTVTVSS
VL: DIQMTQSPSSVSASVGDRVTITCRASQGISSWLVWYQQKPGKVPKLLIYAASSLQSGVPLRFSGSGSGTDFTLTISSLQPEDFATYYCQQAKSFPLTFGQGTRLEIK
notes: as for B1
B7: H4H16943P (antibody, human IgG4, V domains shown)
VH: EVQLVESGGGLVQPGGSLRLSCTASGFMSSMYWMSWVRQAPGKGLEWVSNIKQDGTEKNYVESVKGRFTISRDNAKNSLYLQINSLRGEDTAVYYCARDLYSSSSGYYYYGLDVWGQGTTVTVSS
VL: DIVMTQSPLSLPVTPGEPASISCRSSQSLLHSNKYNYLDWYLQKPGQSPQLLIYLSSNRASGVPDRFSGSGSGTEFTLKISRVEAEDVGIYYCMQALHTPLTFGGGTKVEIK
notes: as for B1
B8: H4H16987P (antibody, human IgG4 S228P, kappa, V domains shown)
VH: EVQLVESGGGLVQPGGSLRLSCAASGFTVSSNSMSWVRQAPGEGLEWVSVIFSGGITYYSDSVKGRFTISRHNSKNTLYLQMNSLRTEDTAVYYCARHSNWNFDAFDIWGQGTMVTVSS
VL: DIQMTQSPSSLSASVGDRVTITCRASQSFDTYLNWYQQKPGKAPNLLIYATSSLQSGVPSRFSGSGSGTDFTLTISSLQPEDFGTYYCQQSYSIPYTFGQGTKLEIKR
notes: human IgG4 Fc; also called MAB4
B9: H4H17028P (antibody, human IgG4, V domains shown)
VH: QVQLVESGGGVVQPGRSLRLSCAASGFTFSRYAIHWVRQAPGKGLEWVAVISYDGDDKYYGDSVKGRFTISRDNSKTMVYLHMNSLRTEDTAVYYCAKDGYSLYGKDYFDYWGQGTLVTVSS
VL: EIVLTQSPGTLPLSPGERATLSCRASQSITNSYLAWYQQKPDQAPRLLIYGASSRATGIPDRFSGSESGTDFTLTISRLEPEDFAVYYCQQYVRSPWTFGQGTKVEIK
B10: H4H17033P (antibody, human IgG4, V domains shown)
VH: QVQLVQSGAEVKKPGASVKVSCKASGYTFAAHYMHWVRQAPGQGLEWMGWINTYTGGTNYGQKFQGRVTMTRDTSITTAYMELSRLRSDDTAVYYCARDRRNWNFVFEYWGQGTLVTVSS
VL: DIQMTQSPSSLSASVGDRVTISCRASQNIKNYLNWYQQKPGKAPKLLIYEASNLQSGAPSRFSGSGSGTDFTLTISSLEPEDFATYYCQQSFSIPWTFGQGTKVEIK
B11: H4H17045P2 (antibody, human IgG4, V domains shown)
VH: EVQLVESGGGLVQPGVSLRLSCVASGFTFSNYDITWIRQIPGKGLEWVSRISGSGGSTYFADSVKGRFIISRDNSKNTVYMQMNSLRAEDSAVYYCARRDSVLFSMNSWLDPWGQGTLVTVSS
VL: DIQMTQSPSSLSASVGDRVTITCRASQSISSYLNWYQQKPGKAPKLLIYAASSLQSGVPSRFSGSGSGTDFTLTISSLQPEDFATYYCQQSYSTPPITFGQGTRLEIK
B12: H4H17027P (antibody, human IgG4, V domains shown)
VH: EVQLVESGGGLVQPGGSLRLSCAASGFTFRNYAMHWVRQAPGEGLEWVAAIYRNSDSIDYADSVKGRFTISRDNAKNSLYLQMNSLKTEDTALYYCAKDEGFLEYFDSWGQGTLVTVSS
VL: EIVLTQSPGTLSLSPGERASLSCRASQSVSSSFLAWYQQKPGQAPRLLIYGVSSRFIGIPDRFSGGGSGTDFTLTITRLEPEDFAVYYCQQYGRSPWTFGQGTKVEIK
B13: H4H17067P2 (antibody, human IgG4, V domains shown)
VH: EVQLVQSGAEVKKPGESLKISCSGSGYRFTNYWIAWVRQMPGKGLEWMGLIHPDDSDIRYSPSFQGQVTFSVDKSINTAYLQWSSLKASDTAMYYCTRQDGILWSHNAWFDPWGQGTLVTVSS
VL: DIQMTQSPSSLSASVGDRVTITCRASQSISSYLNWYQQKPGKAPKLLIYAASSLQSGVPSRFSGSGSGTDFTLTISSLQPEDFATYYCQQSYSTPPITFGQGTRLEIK

The binders below were run against T1, Hazel (Cor A 1, MyBiosource, Cat# MBS5304600) (Hazel, UniProt Q08407 2-160, limits assumed) (assay: SPR Biacore 4000, mAb captured by anti-human Fc, 25 C;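 note: allergen analyte binding to captured, purified anti-Bet v 1 monoclonal antibodies, SPR in HEPES-buffered saline running buffer with EDTA and Tween-20 at pH 7.4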).
T1 construct: Bought reagent
T1 sequence (looked up): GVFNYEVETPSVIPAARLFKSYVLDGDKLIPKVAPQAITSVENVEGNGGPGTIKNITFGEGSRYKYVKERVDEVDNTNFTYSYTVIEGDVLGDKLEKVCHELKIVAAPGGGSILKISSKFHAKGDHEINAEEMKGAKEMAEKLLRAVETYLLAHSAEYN
B1 was tested, and the “100 nM Analyte Bound (RU)” value was 0 RU and the binding result was “no binding (tested: 100 nM)”.
For B2, the “100 nM Analyte Bound (RU)” value was 0 RU and the binding result was “no binding (tested: 100 nM)”.
With B3 the “100 nM Analyte Bound (RU)” value was 0 RU and the binding result was “no binding (tested: 100 nM)”.
For B4, the “100 nM Analyte Bound (RU)” value was 0 RU and the binding result was “no binding (tested: 100 nM)”.
B5 was tested, and the “100 nM Analyte Bound (RU)” value was -1 RU.
B6 was tested, and the “100 nM Analyte Bound (RU)” value was 0 RU and the binding result was “no binding (tested: 100 nM)”.
For B7, the “100 nM Analyte Bound (RU)” value was 0 RU and the binding result was “no binding (tested: 100 nM)”.
With B8 the “100 nM Analyte Bound (RU)” value was 0 RU and the binding result was “no binding (tested: 100 nM)”.

Biological target: T2, natural Bet v 1 (Betula verrucosa (Betula pendula), UniProt P15494 2-160)
T2 construct: Bought natural protein; also called nBet v 1
T2 chain: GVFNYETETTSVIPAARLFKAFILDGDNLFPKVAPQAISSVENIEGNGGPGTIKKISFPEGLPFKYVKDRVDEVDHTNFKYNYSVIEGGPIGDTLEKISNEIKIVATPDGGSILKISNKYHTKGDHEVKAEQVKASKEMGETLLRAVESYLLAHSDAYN
Assay: SPR Biacore 4000, mAb captured on anti-human Fc, 37C;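 note: kinetic rate constants from SPR sensorgrams fitted to a 1:1 model with mass transport limitation, HBS-ET buffer pH 7.4, KD and t½ derived from the rate constants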
For B9, the “100 nM natural Bet v 1 Bound (RU)” value was 71 RU, the Kd was 7.77 nM and the koff was 0.0029 s⁻¹. For the same binder, the kon was 373000 M⁻¹ s⁻¹ and the t½ was 3.9 min.
With B10 the “100 nM natural Bet v 1 Bound (RU)” value was 74 RU, the Kd was 1.9 nM and the koff was 0.00119 s⁻¹. The kon was 627000 M⁻¹ s⁻¹ and the t½ was 10 min.
B11 was tested, and the “100 nM natural Bet v 1 Bound (RU)” value was 90 RU, the Kd was 1.86 nM and the koff was 0.000441 s⁻¹. It also gave a kon of 237000 M⁻¹ s⁻¹ and a t½ of 26 min.
With B12 the “100 nM natural Bet v 1 Bound (RU)” value was 67 RU, the Kd was 9.48 nM and the koff was 0.00093 s⁻¹. For the same binder, the kon was 98100 M⁻¹ s⁻¹ and the t½ was 12 min.
For B13, the “100 nM natural Bet v 1 Bound (RU)” value was 80 RU, the Kd was 5.48 nM and the koff was 0.00147 s⁻¹. The kon was 268000 M⁻¹ s⁻¹ and the t½ was 7.9 min.

Biological target: T2, natural Bet v 1
Assay: SPR Biacore 4000, mAb captured on anti-human Fc, 25C;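 note: purified anti-Bet v 1 mAbs probed with natural Bet v 1 in HBS-ET buffer (HEPES, NaCl, EDTA, Tween-20) at pH 7.4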
With B9 the “100 nM natural Bet v 1 Bound (RU)” value was 63 RU, the Kd was 3.79 nM and the koff was 0.00107 s⁻¹. It also gave a kon of 281000 M⁻¹ s⁻¹ and a t½ of 11 min.
B10 was tested, and the “100 nM natural Bet v 1 Bound (RU)” value was 61 RU, the Kd was 1.19 nM and the koff was 0.000469 s⁻¹. For the same binder, the kon was 394000 M⁻¹ s⁻¹ and the t½ was 25 min.
With B11 the “100 nM natural Bet v 1 Bound (RU)” value was 69 RU, the Kd was 1.22 nM and the koff was 0.000149 s⁻¹. For the same binder, the kon was 122000 M⁻¹ s⁻¹ and the t½ was 78 min.
With B12 the “100 nM natural Bet v 1 Bound (RU)” value was 48 RU, the Kd was 4.32 nM and the koff was 0.00027 s⁻¹. For the same binder, the kon was 62400 M⁻¹ s⁻¹ and the t½ was 43 min.
For B13, the “100 nM natural Bet v 1 Bound (RU)” value was 58 RU, the Kd was 3.56 nM and the koff was 0.000402 s⁻¹. It also gave a kon of 113000 M⁻¹ s⁻¹ and a t½ of 29 min.
